We go through 2 molecules from article PMC3310817, “Liver X Receptors Regulate the Transcriptional Activity of the Glucocorticoid Receptor: Implications for the Carbohydrate Metabolism”.

Data set [1] addresses T1, LXRα (recombinant, Active Motif);RXRα (recombinant, Active Motif) (Homo sapiens;Homo sapiens, UniProt Q13133;P19793 1-447;1-462, |). Put plainly: EMSA; complex C; EMSA: 10 mM HEPES pH 8.0, 0.1 mM EDTA, 2 mM DTT, 50 mM NaCl, 5 mM MgCl2, 50 mM KCl, 4 mM spermidine, 4% Ficoll, 1 ug poly(dI-dC); preincubation 10 min 4 C, then 15 min room temperature with probe. Particulars: protein: commercial;commercial; tags: ;; copies: 1;1; label: 32P; blunt. Background: A gel shift assay detects complexes by their altered migration in electrophoresis.

Data set [2] has as its target T1, LXRα (recombinant, Active Motif);RXRα …. Description: EMSA; GW3965 (enhances binding); EMSA: 10 mM HEPES pH 8.0, 0.1 mM EDTA, 2 mM DTT, 50 mM NaCl, 5 mM MgCl2, 50 mM KCl, 4 mM spermidine, 4% Ficoll, 1 ug poly(dI-dC); preincubation 10 min 4 C, then 15 min room temperature with probe. Particulars: protein: commercial;commercial; tags: ;; copies: 1;1; label: 32P; blunt.

T1 sequence (Q13133 whole entry, chain 1 of 2): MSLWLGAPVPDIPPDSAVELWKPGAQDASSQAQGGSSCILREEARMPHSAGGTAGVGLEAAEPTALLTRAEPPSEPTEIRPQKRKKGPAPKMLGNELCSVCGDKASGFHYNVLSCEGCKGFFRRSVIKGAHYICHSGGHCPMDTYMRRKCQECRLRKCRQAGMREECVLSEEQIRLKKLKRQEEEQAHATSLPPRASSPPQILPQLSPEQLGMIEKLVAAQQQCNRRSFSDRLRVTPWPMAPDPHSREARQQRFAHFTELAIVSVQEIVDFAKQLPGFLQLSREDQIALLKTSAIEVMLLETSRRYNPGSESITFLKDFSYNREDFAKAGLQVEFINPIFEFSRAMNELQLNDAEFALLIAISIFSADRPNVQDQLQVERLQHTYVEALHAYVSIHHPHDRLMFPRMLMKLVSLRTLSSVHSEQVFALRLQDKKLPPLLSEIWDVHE
T1 sequence (P19793 whole entry, chain 2 of 2): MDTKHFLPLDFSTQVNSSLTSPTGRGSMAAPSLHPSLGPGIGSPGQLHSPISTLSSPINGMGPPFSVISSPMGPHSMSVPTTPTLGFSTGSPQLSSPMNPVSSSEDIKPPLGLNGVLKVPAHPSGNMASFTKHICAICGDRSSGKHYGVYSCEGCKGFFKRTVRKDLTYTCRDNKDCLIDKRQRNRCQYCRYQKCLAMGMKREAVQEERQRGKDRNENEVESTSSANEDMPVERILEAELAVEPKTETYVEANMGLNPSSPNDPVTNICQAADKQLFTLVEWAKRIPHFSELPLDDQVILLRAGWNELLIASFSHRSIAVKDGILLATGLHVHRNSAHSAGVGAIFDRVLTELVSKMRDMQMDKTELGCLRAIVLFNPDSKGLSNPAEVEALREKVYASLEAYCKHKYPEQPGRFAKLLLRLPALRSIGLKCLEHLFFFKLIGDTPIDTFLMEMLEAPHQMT

B1: G6Pase GRE wt (dsDNA)
DNA 1: GCACTGTCAAGCAGTGTGCCCAAGTTAATAATT
DNA 2: AATTATTAACTTGGGCACACTGCTTGACAGTGC
Consider B1, for which the binding result in data set [1] is “binds”.

B2: Classic GRE wt (dsDNA)
DNA 1: AGCTGGTACAAACTGTTCTAGCT
DNA 2: AGCTAGAACAGTTTGTACCAGCT
For the molecule B2, the binding result in data set [2] is reported as “binds”.
